Results: patent US20140294837A1 (SAMSUNG ELECTRONICS, published 2014)

Tests used:
[1] = target: T1, human c-Met/Fc fusion protein (R&D Systems) (human, UniProt P08581 25-932); experiment: ELISA, hybridoma culture on plate-coated human c-Met/Fc fusion protein
T1 construct: Immunogen and ELISA antigen; also called human c-Met/Fc protein; not shown: Fc part of the bought fusion protein; not described

[2] = target: c-Met on cells (MKN45, Caki-1, NCI-H441, HUVEC) (human, UniProt P08581 25-1390); experiment: cell-based or functional assay
[3] = target: T2, c-Met (R&D Systems, Cat. No. 358-MT/CF) (UniProt P08581 25-932); experiment: SPR, Biacore T100; antibody captured by human Fab binder on CM5 chip, c-Met injected
T2 construct: Bought protein used as analyte in SPR
Procedure: The binding kinetics of the double-targeted fusion proteins manufactured in the above were analyzed using Biacore T100 instrument (GE Healthcare). A human Fab binding agent (GE Healthcare) was immobilized on the surface of a CM5 chip (GE Healthcare, Cat. No. BR-1005-30) according to the manufacturer's manual. […] Then, 10 mM Glycine-HCl (pH 1.5) solution was added thereto, whereby the surface was regenerated. In order to measure the binding kinetics, the data obtained from the above experiment was fitted using BIAevaluation software (GE Healthcare, Biacore T100 evaluation software).

[4] = target: hVEGF (GE Healthcare, 28-9583-25) (human, UniProt P15692-4 27-191); experiment: SPR, Biacore T100; hVEGF immobilized on CM5 chip, MV10AY at 6 concentrations
Procedure: The binding kinetics of the double-specific antibodies having VEGF as a target were measured by an SPR method using Biacore T100 instrument (GE Healthcare). hVEGF (GE Healthcare, 28-9583-25) was immobilized on the surface of a CM5 chip according to the manufacturer's manual. […] The obtained surface was regenerated by injecting 1M NaCl+30 mM NaOH at a fluid rate of 30 μl/min for 60 sec. In order to determine binding kinetics, the data obtained from the above experiment was fitted using BIAevaluation software (GE Healthcare) (K_{D=}=0.45 nM).

Chain of hVEGF (GE Healthcare, 28-9583-25) (P15692 other isoform, or with tags, fused parts or gaps limits assumed): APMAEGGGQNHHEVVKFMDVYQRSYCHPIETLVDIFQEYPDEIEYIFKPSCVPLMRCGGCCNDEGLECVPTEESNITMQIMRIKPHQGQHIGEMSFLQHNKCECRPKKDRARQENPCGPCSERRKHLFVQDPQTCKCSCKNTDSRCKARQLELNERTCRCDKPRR
Chain of c-Met on cells (MKN45, Caki-1, NCI-H441, HUVEC) (P08581 25-1390): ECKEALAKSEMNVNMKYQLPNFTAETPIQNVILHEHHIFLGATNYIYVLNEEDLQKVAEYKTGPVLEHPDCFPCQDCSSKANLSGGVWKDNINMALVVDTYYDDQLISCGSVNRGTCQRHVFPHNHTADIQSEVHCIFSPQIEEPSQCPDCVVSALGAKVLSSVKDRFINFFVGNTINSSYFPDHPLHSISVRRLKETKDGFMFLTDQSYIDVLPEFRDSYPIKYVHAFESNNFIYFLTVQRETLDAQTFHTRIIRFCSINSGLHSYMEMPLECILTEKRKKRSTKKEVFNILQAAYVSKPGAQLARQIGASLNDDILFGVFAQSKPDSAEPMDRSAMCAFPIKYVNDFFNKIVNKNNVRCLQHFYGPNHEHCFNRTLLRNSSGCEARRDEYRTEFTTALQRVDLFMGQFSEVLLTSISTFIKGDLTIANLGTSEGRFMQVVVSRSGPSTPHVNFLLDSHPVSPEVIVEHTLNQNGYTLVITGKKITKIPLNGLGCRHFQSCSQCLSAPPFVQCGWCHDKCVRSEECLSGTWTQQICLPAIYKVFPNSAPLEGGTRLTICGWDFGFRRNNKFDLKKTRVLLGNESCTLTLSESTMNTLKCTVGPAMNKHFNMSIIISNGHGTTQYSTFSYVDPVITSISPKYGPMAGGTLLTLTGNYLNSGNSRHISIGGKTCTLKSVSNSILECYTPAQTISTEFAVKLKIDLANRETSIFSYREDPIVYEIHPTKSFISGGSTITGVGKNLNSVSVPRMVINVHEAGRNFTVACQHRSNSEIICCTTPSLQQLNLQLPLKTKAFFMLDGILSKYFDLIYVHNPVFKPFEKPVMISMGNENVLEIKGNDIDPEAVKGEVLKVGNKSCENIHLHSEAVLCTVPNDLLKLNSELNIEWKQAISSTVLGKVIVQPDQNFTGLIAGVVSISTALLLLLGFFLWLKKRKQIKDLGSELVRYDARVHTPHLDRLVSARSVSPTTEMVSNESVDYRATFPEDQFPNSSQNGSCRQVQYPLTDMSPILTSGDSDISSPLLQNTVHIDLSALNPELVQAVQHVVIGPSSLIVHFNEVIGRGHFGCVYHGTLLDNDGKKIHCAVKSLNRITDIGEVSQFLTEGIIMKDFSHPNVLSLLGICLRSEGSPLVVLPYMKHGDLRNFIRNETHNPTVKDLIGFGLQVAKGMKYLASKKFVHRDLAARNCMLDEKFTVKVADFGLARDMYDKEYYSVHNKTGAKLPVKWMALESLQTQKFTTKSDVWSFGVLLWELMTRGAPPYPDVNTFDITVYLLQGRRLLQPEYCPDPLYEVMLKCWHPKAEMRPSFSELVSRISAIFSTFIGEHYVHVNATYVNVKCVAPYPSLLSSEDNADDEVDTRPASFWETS
T2 sequence (P08581 25-932 limits assumed): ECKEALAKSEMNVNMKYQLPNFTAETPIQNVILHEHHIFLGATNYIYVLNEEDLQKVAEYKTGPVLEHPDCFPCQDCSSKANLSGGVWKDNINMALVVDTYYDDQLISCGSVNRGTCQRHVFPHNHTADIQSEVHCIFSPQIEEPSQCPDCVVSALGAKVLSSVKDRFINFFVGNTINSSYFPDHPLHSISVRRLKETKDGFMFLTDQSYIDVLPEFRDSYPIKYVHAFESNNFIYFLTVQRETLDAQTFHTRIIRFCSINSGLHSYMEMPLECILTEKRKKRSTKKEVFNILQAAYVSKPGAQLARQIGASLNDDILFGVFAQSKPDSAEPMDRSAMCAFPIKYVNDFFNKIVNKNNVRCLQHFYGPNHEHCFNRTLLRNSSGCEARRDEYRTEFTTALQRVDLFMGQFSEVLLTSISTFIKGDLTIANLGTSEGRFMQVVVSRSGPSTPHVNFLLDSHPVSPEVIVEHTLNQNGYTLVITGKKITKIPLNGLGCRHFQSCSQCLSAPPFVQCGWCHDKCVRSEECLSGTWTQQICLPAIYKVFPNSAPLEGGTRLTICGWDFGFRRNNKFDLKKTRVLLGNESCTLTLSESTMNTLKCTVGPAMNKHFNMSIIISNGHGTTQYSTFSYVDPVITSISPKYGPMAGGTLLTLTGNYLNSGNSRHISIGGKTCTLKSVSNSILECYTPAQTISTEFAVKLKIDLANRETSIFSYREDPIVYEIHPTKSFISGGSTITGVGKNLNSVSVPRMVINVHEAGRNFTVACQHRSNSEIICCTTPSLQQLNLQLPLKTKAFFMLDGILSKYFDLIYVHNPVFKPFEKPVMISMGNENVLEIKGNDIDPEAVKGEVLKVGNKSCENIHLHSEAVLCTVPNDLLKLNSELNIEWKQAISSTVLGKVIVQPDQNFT
T1 sequence (P08581 25-932 limits assumed): as above

Binder | AKT phosphorylation inhibitory ability (phospho-AKT Ser473 ELISA, Caki-1 cells, compared to 5D5 control group) [2] | c-Met degradation ability (total c-Met ELISA, MKN45 cells, 5 ug/ml antibody, 24 h) [2] | Kd [3] | koff [3] | kon [3] | also measured
AbF46, a mouse antibody to c-Met (antibody, V domains shown, also called monoclonal antibody of hybridoma KCLRF-BP-00220) VH: EVKLVESGGGLVQPGGSLRLSCATSGFTFTDYYMSWVRQPPGKALEWLGFIRNKANGYTTEYSASVKGRFTISRDNSQSILYLQMDTLRAEDSATYYCARDNWFAYWGQGTLVTVSA VL: DILMTQSPSSLTVSAGEKVTMSCKSSQSLLASGNQNNYLAWHQQKPGRSPKMLIIWASTRVSGVPDRFIGSGSGTDFTLTINSVQAEDLAVYYCQQSYSAPLTFGAGTKLELK | – | – | – | – | – | binding result [1]: binds
L3-1Y (antibody, V domains shown, also called c-Met single-targeted antibody L3-1Y) VH: EVQLVESGGGLVQPGGSLRLSCAASGFTFTDYYMSWVRQAPGKGLEWLGFIRNKANGYTTEYSASVKGRFTISRDNSKNTLYLQMNSLRAEDTAVYYCARDNWFAYWGQGTLVTVSS VL: DIQMTQSPSSLSASVGDRVTITCKSSQSLLASGNQNNYLAWYQQKPGKAPKMLIIWASTRVSGVPSRFSGSGSGTDFTLTISSLQPEDFATYYCQQSYSRPYTFGQGTKVEIKR | 63% | 66% | < 0.01 nM | < 1.2e-05 s⁻¹ | 770000 M⁻¹ s⁻¹ | –
Ab2 (antibody, V domains shown) VH: QVQLVQSGAEVKKPGASVKVSCKASGYIFTAYTMHWVRQAPGQGLDWMGGIKPNNGLANYAQKFQGRVTMTVDKSISTAYMELSRLRSDDTAVYYCARSEITTEFDYWGQGTLVTVSS VL: DIVLTQSPDSLAVSLGERATINCRSSESVDSYANSFMHWYQQKPGQPPKLLIYRASTRESGVPDRFSGSGSRTDFTLTISSLQAEDVAVYYCQQSKEDPLTFGGGTKVEIKR | – | – | – | – | – | c-Met degradation ability (total c-Met ELISA, method of Example 2.2) [2]: 70.4%
MV10A (bispecific antibody) heavy: not shown light: DIQMTQSPSSLSASVGDRVTITCKSSQSLLASGNQNNHLAWYQQKPGKAPKMLIIWASTRVSGVPSRFSGSGSGTDFTLTISSLQPEDFATYYCQQSYSRPYTFGQGTKVEIKRTVAAPSVFIFPPSDEQLKSGTASVVCLLNNFYPREAKVQWKVDNALQSGNSQESVTEQDSKDSTYSLSSTLTLSKADYEKHKVYACEVTHQGLSSPVTKSFNRGEC | 79% | 76% | – | – | – | –
MV10AY (bispecific antibody, also called bispecific antibody MV10AY; double-specific antibody MV10AY) heavy: not shown light: DIQMTQSPSSLSASVGDRVTITCKSSQSLLASGNQNNYLAWYQQKPGKAPKMLIIWASTRVSGVPSRFSGSGSGTDFTLTISSLQPEDFATYYCQQSYSRPYTFGQGTKVEIKRTVAAPSVFIFPPSDEQLKSGTASVVCLLNNFYPREAKVQWKVDNALQSGNSQESVTEQDSKDSTYSLSSTLTLSKADYEKHKVYACEVTHQGLSSPVTKSFNRGEC | 74% | 72% | < 0.01 nM | < 1.4e-05 s⁻¹ | 680000 M⁻¹ s⁻¹ | Kd [4]: 0.45 nM; koff [4]: 0.0011 s⁻¹; kon [4]: 2.4e+06 M⁻¹ s⁻¹

Further lines, with some results ahead:

AKT phosphorylation inhibitory ability (phospho-AKT Ser473 ELISA, Caki-1 cells, compared to 5D5 control group) [2] | c-Met degradation ability (total c-Met ELISA, MKN45 cells, 5 ug/ml antibody, 24 h) [2] | Kd [3] | koff [3] | kon [3] | Binder | also measured
69% | 68% | – | – | – | huAbF46-H4-A1 (L3-1 origin) (antibody, V domains shown) VH: EVQLVESGGGLVQPGGSLRLSCAASGFTFTDYYMSWVRQAPGKGLEWLGFIRNKANGYTTEYSASVKGRFTISRDNSKNTLYLQMNSLRAEDTAVYYCARDNWFAYWGQGTLVTVSS VL: DIQMTQSPSSLSASVGDRVTITCKSSQSLLASGNQNNHLAWYQQKPGKAPKMLIIWASTRVSGVPSRFSGSGSGTDFTLTISSLQPEDFATYYCQQSYSRPYTFGQGTKVEIKR | –
– | – | < 0.01 nM | < 6.9e-05 s⁻¹ | 720000 M⁻¹ s⁻¹ | MV10AY U3 HC9/IgG2 (bispecific antibody) heavy: EVQLVESGGGLVQPGGSLRLSCAASGFTFTDYYMSWVRQAPGKGLEWLGFIRNKANGYTTEYSASVKGRFTISRDNSKNTLYLQMNSLRAEDTAVYYCARDNWFAYWGQGTLVTVSSASTKGPSVFPLAPCSRSTSESTAALGCLVKDYFPEPVTVSWNSGALTSGVHTFPAVLQSSGLYSLSSVVTVPSSNFGTQTYTCNVDHKPSNTKVDKTVERKCCVECPPCPAPPVAGPSVFLFPPKPKDTLMISRTPEVTCVVVDVSHEDPEVQFNWYVDGVEVHNAKTKPREEQFNSTFRVVSVLTVVHQDWLNGKEYKCKVSNKGLPAPIEKTISKTKGQPREPQVYTLPPSREEMTKNQVSLTCLVKGFYPSDIAVEWESNGQPENNYKTTPPMLDSDGSFFLYSKLTVDKSRWQQGNVFSCSVMHEALHNHYTQKSLSLSPGKGGGGSGGGGSSDTGRPFVEMYSEIPEIIHMTEGRELVIPCRVTSPNITVTLKKFPLDTLIPDGKRIIWDSRKGFIISNATYKEIGLLTCEATVNGHLYKTNYLTHRQTNTI light: DIQMTQSPSSLSASVGDRVTITCKSSQSLLASGNQNNYLAWYQQKPGKAPKMLIIWASTRVSGVPSRFSGSGSGTDFTLTISSLQPEDFATYYCQQSYSRPYTFGQGTKVEIKRTVAAPSVFIFPPSDEQLKSGTASVVCLLNNFYPREAKVQWKVDNALQSGNSQESVTEQDSKDSTYSLSSTLTLSKADYEKHKVYACEVTHQGLSSPVTKSFNRGEC | –
